Test results from patent publication US20130058935A1 (INSTITUTE FOR CANCER RESEARCH, published 2013).

Molecular target: T1, mouse TEM7R extracellular domain, 6xHis-tagged, secreted (mouse, UniProt Q9DC11 31-455)
T1 construct: extracellular domain; also called mTEM7R ECD; TEM7R ECD; not shown: 6xHis tag from the pSecTag2/Hygro A vector
Assay: SPR (BIAcore), ECD immobilised on CM5 chip, 1:1 Langmuir fit
Protocol: scFvs were expressed in E. coli and purified by sequential IMAC and size exclusion chromatography (Robinson, M K et al. (2005) Cancer Research 65:1471-8). Binding of the TEM7R scFv, to extracellular domain (ECDs) was characterized by SPR using TEM7R ECD as the target antigen (Yuan, Q A et al. (2006) Mol. Cancer Ther. 5:2096-105). ECD was diluted to 10 μg/mL in 10 mM sodium acetate pH 5.2 and approximately 200 RU of ECD were immobilized onto CM5 sensor chips via NHS-ester chemistry.
Kinetic constants for A5 were determined by passing serially diluted samples (0 nM to 2 μM) over flow cells at flow rate of 40 μL/min. Response against an ErbB2 coated flow cell was used as a negative control and subtracted from the response generated against the TEM7R ECD to obtain the final sensorgrams. Data was evaluated using BIAEvaluation 3.2 software (BIAcore, Piscataway, N.J.) and fit using the 1:1 Langmuir binding model. Flow cells were regenerated by sequential 15-second pulses with 10 mM glycine, pH 2 and 50 mM Triethylamine, pH 10 followed by equilibration with PBS running buffer.

T1 sequence (Q9DC11 31-455): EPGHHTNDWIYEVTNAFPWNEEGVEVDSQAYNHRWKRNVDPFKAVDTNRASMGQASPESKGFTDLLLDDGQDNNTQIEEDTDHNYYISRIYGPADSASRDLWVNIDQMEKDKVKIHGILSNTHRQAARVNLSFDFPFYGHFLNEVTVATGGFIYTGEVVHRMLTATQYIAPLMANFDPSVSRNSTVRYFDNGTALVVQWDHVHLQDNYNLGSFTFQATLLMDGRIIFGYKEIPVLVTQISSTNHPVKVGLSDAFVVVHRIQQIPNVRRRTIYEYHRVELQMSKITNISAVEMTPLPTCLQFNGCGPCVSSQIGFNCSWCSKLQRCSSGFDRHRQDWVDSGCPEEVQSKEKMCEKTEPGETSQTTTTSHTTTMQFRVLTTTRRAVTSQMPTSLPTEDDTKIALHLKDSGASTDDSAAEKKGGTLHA

B1: anti-mTEM7R scFv#4 (scFv)
scFv: MAQVQLVESGGGLVQPGGSLRLSCAASGFTFSSYEMNWVRQAPGKGLEWVSYISSSGSTIYYADSVKGRFTISRDNSKNTLYLQMNSLRAEDTAVYYCASGDYMDVWGQGTTVTVSSSASGAELGGGGSGGGGSGGGGSTSDIQLTQSPSSLSASVGDRVTITCQASQDISNYLNWYQQKPGKAPKLLMYDASNLETGVPSRFSGSGSGTDFTFTISSLQPEDFATYYCQQSDNLPYTFGQGTKVDIKRS
notes: Human scFv from a naive phage library, expressed in E. coli TG1 (pUC119mycHis / pSYN2) and purified by Ni-NTA, so it carries a His tag; also called clone 4; anti-TEM7R scFv
Kd: 10 nM
